Measurements as given in US10562935B2, “Stapled peptides and uses thereof” (London Health Sciences Centre Research Inc., priority 2015, dated 2020).
Where a SMILES comes first, the peptide text is derived from it. Bridges are numbered along the chain shown (N, C = ends).

Columns and labels:
circular dichroism = conditions: pH ns, 0.5 mM
[1] = Direct HA-binding ELISA of biotinylated peptides on HA coated plates (Example 4); set-up: key to HA binding: absorbance (color) read at 450 nm
Method: Each of these peptides was biotinylated at its amino-terminus, and an AEEA spacer was included to separate the peptide sequence from the biotin molecule.
HA coated plates were purchased (ECHELON). Peptides were dissolved in 2 mM PBS to constant molarity, aliquoted and stored at −20° C. until used in assays. 7 kDa biotin-labeled RHAMM (SEQ ID NO: 1) was synthesized and used as a positive control in these assays. Biotin labeled peptides were added to the HA coated wells (n=3 replicates/peptide) at either 0.8 or 0.08 μM and then incubated with shaking overnight at 4° C. Wells were washed free of excess unbound peptides using 200 μl PBS (4 times). 100 μl of Streptavidin-HRP was then added to each well and the plate was incubated at room temperature for 1 hr. The plate was then washed with 200 μl PBS/well 4 times and TMB Liquid Substrate System for ELISA (Sigma) was added to each well, incubated for 5-10 min at room temperature and color read at 450 nm Plate Reader (BioTek, SYNERGY H4, Hybrid Reader).
Direct HA-binding results for the biotinylated equivalents of compounds 132 and 150-161 are show in FIG. 39, and results for compounds 265-268 and 275-278 are shown in FIG. 40.

[2] = Circular dichroism (CD) spectroscopy of linear and stapled peptides in water or 40% TFE/water (Example 3); type: physicochemical; conditions: for [0]208 mean residue ellipticity: λ = 208 nm; for [0]222 mean residue ellipticity: λ = 222 nm
Method: CD spectra were obtained on a Jasco J-810 spectropolarimeter and recorded in the range of 180-260 nm. Peptide solutions were prepared with a 0.1M phosphate buffer solution to a concentration of 0.5 mM. The measurements were performed in quartz cuvettes with a path length of 1 mm and a scanning speed of 10-50 nm/min. Five individual data points were averaged by the instrument in order to obtain the reported CD spectrum. The measurements were carried out at 20° C. A blank solution of 0.1M phosphate buffer solution was run before every measurement in order to baseline correct for any UV-interference observed from the buffer.
CD data for the 14- and 15-mer peptides containing HABD2 (VSKLRSQLVKRKQN, SEQ ID NO: 2) and HABD1 (NLKQKIKHVVKLKDE, SEQ ID NO: 4) and cyclized derivatives thereof in water or 40% TFE/water are provided below in Tables 8 (water) and 9 (40% TFE/water). Tables 8 and 9 provide the mean residue ellipicity ([θ] deg cm^2 dmol^−1) at λ=222 and 208 nm for each peptide and ratios of ellipticities at 222/208. Each of the peptides was acetylated at its amino terminus and amidated at its carboxy terminus.
CD data for linear peptides having the sequences […] (SEQ ID NO: 5) and […] (SEQ ID NO: 6) and cyclized derivatives thereof in water or 40% TFE/water are provided below in Tables 12 (water) and 13 (40% TFE/water). Tables 12 and 13 provide the mean residue ellipicity ([0] deg cm^2 dmol^−1) at λ=222 and 208 nm for each peptide and ratios of ellipticities at 222/208. Each of the peptides was acetylated at its amino terminus and amidated at its carboxy terminus.
Circular Dichroism (CD) spectroscopy is a tool that is used to study the secondary structure characteristics of a compound. Peptides and proteins can fold into organized structures, such as alpha helices and beta sheets, which are the result of complex hydrogen bonding and other interactions between amino acid side chains, as well as adopt a random coil formation, which lacks much of the organization of the other two structures. The CD spectrum of an alpha helix is characterized by two local minima at 208 nm and 222 nm. The ratio of the values of the molar ellipticities at these wavelengths ([θ]222/[θ]208) is a strong indication of the relative helicity of a compound; a compound is more helical when the ratio of these two values approaches 1.0. Synthetic constraints introduced to the peptide backbone can force a peptide chain to increase its helical character. These constraints can be introduced by staples, of varying types, which allow cyclization of the peptide backbone to take place.

[3] = tested on: RHAMM-overexpressing (LR21) cells; experiment: Cell migration assay (Boyden chamber, Chemicon ECM510); type: cell-based; conditions: % inhibition relative to positive control
Method: Compounds 132, 133, 150-152, 156-161, 265-269, 275, 277, and 278 were evaluated for their ability to inhibit cell migration. Cell migration assays were performed using Chemicon Assay Kits (ECM510 (Migration); Billerica, Mass., USA) according to the manufacturer's protocol. Briefly, sub-confluent cultures of RHAMM-overexpressing (LR21) cells were serum starved overnight. 7.5×10^4 cells were then plated in the upper chamber of a Boyden chamber. either in the presence or absence of 10 ng/mL of peptide. 30% fetal bovine serum in DMEM was used as the chemo-attractant in the lower chamber. The number of cells that had crossed the membrane after 20 hours was assessed using the CYQUANT GR Dye and lysis buffer solution provided in the kit. Fluorescence was measured with a fluorescent plate reader using a 480/520 nm filter set.
Values are the mean and SDM of n=3 replicates. *p<0.05, **p<0.01. All statistics compare to 30% serum control. In FIGS. 41-43, where bars are labeled with two compound numbers (“133/150” and “135/152”) this means that the data were pooled for the indicated compounds, i.e., for the non-acetylated and acetylated versions of the indicated peptides.

[4] = tested on: RHAMM-overexpressing (LR21) cells; experiment: Cell invasion assay (Boyden chamber with MATRIGEL, Chemicon ECM555); type: cell-based; conditions: % inhibition relative to positive control; 10 ng/mL of peptide
Method: Compounds 132, 133, 135, 150-153, 156, 265-269, and 275-278 were evaluated for their ability to inhibit cellular invasion. Invasion assays were performed using Chemicon Assay Kits ECM555 (Invasion); Billerica, Mass., USA) according to the manufacturer's protocol. Invasion assays are performed in an identical manner as the migration assays described above in Example 5, except that cells are required to invade through a layer of extracellular matrix (MATRIGEL) coating the filter that separates the upper and lower Boyden chambers. Briefly, sub-confluent cultures of RHAMM-overexpressing (LR21) cells were serum starved overnight before plating 7.5×10^4 cells in the upper chamber of a Boyden chamber either in the presence or absence of 10 ng/mL of peptide. 30% fetal bovine serum in DMEM was used as the chemo-attractant in the lower chamber. The number of cells that had crossed the membrane after 20 hours was assessed using the CYQUANT® GR Dye and lysis buffer solution provided in the kit. Fluorescence was measured with a fluorescent plate reader using 480/520 nm filter set.
Values the mean and SDM of n=3 replicates. *p<0.05, **p<0.01, ***p<0.001 All statistics compared to 30% serum control. In FIG. 49, where bars are labeled with two compound numbers (“152/135”) this means that the data were pooled for the indicated compound, i.e., for the non-acetylated and acetylated versions of the indicated peptide.

[5] = Function blocking score: total percent inhibition over migration, invasion, inflammation and fibrosis assays divided by number of assays; type: cell-based; conditions: total percent inhibition for all assays tested divided by number of assays
Method: As documented in the Examples hereinabove, a variety of cyclized peptides were produced that contained the HA-binding domain 1 (HABD1), HA-binding domain 2 (HABD2), or both HABD1 and HABD2. These peptides were evaluated for helicity, direct HA binding and in a number of cell-based bioassays (effects on migration, invasion, NFkB activation, and TGFβ1 production) that are relevant to inflammation and fibrosis. The relationships amongst helicity, HA-binding, and biofunction were evaluated. Peptides were divided into three groups for this analysis: (1) peptides containing HABD1 (“HABD1”); (2) peptides containing HABD2 (“HABD2”); and peptides containing most or all of HABD1 and all of HABD2 (“HABD1+HABD2”). R^2 values were calculated to quantify the relationships between helicity, HA-binding, and biofunction were evaluated.
The results of this analysis for the HABD1 peptides are shown below in Tables 15 and 16. Table 16 provides a function blocking scores for each of the tested peptides and provides R^2 values showing the relationship between HA binding and helicity (“HA binding vs. CD”), HA binding and function-blocking score (“HA binding vs. FBS”) and helicity vs. function-blocking score (“CD vs. FBS”). The same type of summaries are provided for the HABD2 peptides in Tables 17 and 18 below, and for the HABD1+HABD2 peptides in Tables 19 and 20 below.
Function blocking scores were calculated as the total percent inhibition achieved by the peptide for all assays the peptides were tested in, divided by the number of assays. Assays included migration, invasion, inflammation and fibrosis assays. Not all peptides were tested all of the assays. All peptides were included for deriving R^2 values (Pearson's formula).

[6] = water (methods paragraph says 0.1 M phosphate; tables say water), 20 °C
[7] = as repeated in tables 16, 18, 20

Q: Which helicity (circular dichroism; [6]) does the source give for CC(=O)N[C@@H](CC(N)=O)C(=O)N[C@@H](CC(C)C)C(=O)N[C@@H](CCCCN)C(=O)N[C@@H](CCC(N)=O)C(=O)N[C@@H](CCCCN)C(=O)N[C@H]1CCC(=O)NCCCC[C@@H](C(=O)N[C@@H](CCCCN)C(=O)N[C@@H](CC(C)C)C(=O)N[C@@H](CCCCN)C(=O)N[C@@H](CC(=O)O)C(=O)N[C@@H](CCC(=O)O)C(N)=O)NC(=O)[C@H](C(C)C)NC(=O)[C@H](Cc2c[nH]cn2)NC(=O)[C@H](CCCCN)NC1=O (Ac-NLKQKEKHVKKLKDE-NH2; lactam 6-10) here?
A: -2610 MRE222

Q: With Ac-NLKQKIKHVVKLKDE-NH2 [Compound 156] as the compound, how does the HA binding [1, 7] read?
A: 0.01

Q: And the “HA direct binding (OD)” value ([1]; optical density, summary tables 15, 17, 19)?
A: 0.01 OD

Q: What about the “[θ]222/[θ]208 ratio of ellipticities” value ([2]; [θ]222/[θ]208 ratio in water, summary tables 15, 17, 19) of the same compound?
A: 0.11

Q: And the “[θ]222/[θ]208 ratio of ellipticities” value [2, 7]?
A: 0.11

Q: And the “[0]222/[0]208 ratio of ellipticities” value ([2]; in 40% TFE/water)?
A: 0.74

Q: And the “[0]222/[0]208 ratio of ellipticities” value ([2]; in water)?
A: 0.11

Q: And the “alpha-helical character by CD (in words)” value ([2]; in water)?
A: nominal alpha helical character in water

Q: What about the “[0]208 mean residue ellipticity” value ([2]; in 40% TFE/water) of the same compound?
A: -1.03E+04 deg cm^2 dmol^−1

Q: And the “[0]208 mean residue ellipticity” value ([2]; in water)?
A: -9.00E+02 deg cm^2 dmol^−1

Q: What about the “[0]222 mean residue ellipticity” value ([2]; in 40% TFE/water) of the same compound?
A: -8.57E+03 deg cm^2 dmol^−1

Q: What about the “[0]222 mean residue ellipticity” value ([2]; in water) of the same compound?
A: -1.01E+02 deg cm^2 dmol^−1

Q: What about the “Migration (% inhib.)” value [3] of the same compound?
A: 0 % inhib.

Q: What about the “Invasion (% inhib.)” value [4] of the same compound?
A: 0 % inhib.

Q: What about the “Function blocking score (FBS)” value [5] of the same compound?
A: 0

Q: For CC(C)[C@H](N)C(=O)N[C@@H](CO)C(=O)N[C@@H](CCCCN)C(=O)N[C@H]1CCC(=O)NCCCC[C@@H](C(=O)N[C@H](C(=O)N[C@@H](CCCCN)C(=O)N[C@@H](CCCNC(=N)N)C(=O)N[C@@H](CCCCN)C(=O)N[C@@H](CCC(N)=O)C(=O)N[C@@H](CC(N)=O)C(N)=O)C(C)C)NC(=O)[C@H](CCC(N)=O)NC(=O)[C@H](CO)NC(=O)[C@H](CCCNC(=N)N)NC1=O (H-VSKERSQKVKRKQN-NH2; lactam 4-8), which helicity (circular dichroism; Milli-Q water, ns °C) is on record?
A: -2260 MRE222

Q: With CC[C@H](C)[C@@H]1NC(=O)[C@@H](NC(=O)[C@H](CCC(N)=O)NC(=O)[C@H](CCCCN)NC(=O)[C@H](CC(C)C)NC(=O)[C@H](CC(N)=O)NC(C)=O)CCC(=O)NCCCC[C@@H](C(=O)N[C@H](C(=O)N[C@@H](CCCCN)C(=O)N[C@@H](CC(C)C)C(=O)N[C@@H](CCCCN)C(=O)N[C@@H](CC(=O)O)C(=O)N[C@@H](CCC(=O)O)C(N)=O)C(C)C)NC(=O)[C@H](Cc2c[nH]cn2)NC(=O)[C@H](CCCCN)NC1=O (Ac-NLKQEIKHKVKLKDE-NH2; lactam 5-9) as the compound, how does the helicity (circular dichroism; [6]) read?
A: -2830 MRE222

Q: For CC(=O)N[C@H](C(=O)N[C@@H](CO)C(=O)N[C@@H](CCCCN)C(=O)N[C@@H](CC(C)C)C(=O)N[C@H]1CCCCNC(=O)CC[C@@H](C(=O)N[C@@H](CCCCN)C(=O)N[C@@H](CCCNC(=N)N)C(=O)N[C@@H](CCCCN)C(=O)N[C@@H](CCC(N)=O)C(=O)N[C@@H](CC(N)=O)C(N)=O)NC(=O)[C@H](CC(C)C)NC(=O)[C@H](CCC(N)=O)NC(=O)[C@H](CO)NC1=O)C(C)C (Ac-VSKLKSQLEKRKQN-NH2; lactam 5-9), which helicity (circular dichroism; [6]) is on record?
A: -974 MRE222

Q: For CC(C)C[C@@H]1NC(=O)[C@H](CCC(N)=O)NC(=O)[C@H](CO)NC(=O)[C@@H](NC(=O)[C@H](CC(C)C)NC(=O)[C@H](CCCCN)NC(=O)[C@H](CO)NC(=O)[C@@H](N)C(C)C)CCC(=O)NCCCC[C@@H](C(=O)N[C@@H](CCCCN)C(=O)N[C@@H](CCCNC(=N)N)C(=O)N[C@@H](CCCCN)C(=O)N[C@@H](CCC(N)=O)C(=O)N[C@@H](CC(N)=O)C(N)=O)NC1=O (H-VSKLESQLKKRKQN-NH2; lactam 5-9), which helicity (circular dichroism; Milli-Q water, ns °C) is on record?
A: -4400 MRE222

Q: Which helicity (circular dichroism; [6]) does the source give for Ac-VSKLRSQLVKRKQN-NH2 here?
A: -1100 MRE222

Q: Which helicity (circular dichroism; Milli-Q water, ns °C) does the source give for CC(C)C[C@H](NC(=O)[C@H](CCCCN)NC(=O)[C@H](CO)NC(=O)[C@@H](N)C(C)C)C(=O)N[C@@H](CCCNC(=N)N)C(=O)N[C@@H](CO)C(=O)N[C@H]1CCC(=O)NCCCC[C@@H](C(=O)N[C@@H](CCCCN)C(=O)N[C@@H](CCC(N)=O)C(=O)N[C@@H](CC(N)=O)C(N)=O)NC(=O)[C@H](CCCCN)NC(=O)[C@H](C(C)C)NC(=O)[C@H](CC(C)C)NC1=O (H-VSKLRSELVKKKQN-NH2; lactam 7-11) here?
A: -1570 MRE222
